The source of these data is PMC7367684, “Mechanical inhibition of isolated Vo from V/A-ATPase for proton conductance” (eLife, 2020).

Broadly, the stoichiometry N is the number of molecules, sites or subunits per partner or assembly.

B3: d subunit of the Thermus thermophilus V/A-ATPase (natural protein)
chain: MADDFAYLNARVRVRRGTLLKESFFQEALDLSFADFLRLLSETVYGGELAGQGLPDVDRAVLRTQAKLVGDLPRLVTGEAREAVRLLLLRNDLHNLQALLRAKATGRPFEEVLLLPGTLREEVWRQAYEAQDPAGMAQVLAVPGHPLARALRAVLRETQDLARVEALLAKRFFEDVAKAAKGLDQPALRDYLALEVDAENLRTAFKLQGSGLAPDAFFLKGGRFVDRVRFARLMEGDYAVLDELSGTPFSGLSGVRDLKALERGLRCVLLKEAKKGVQDPLGVGLVLAYVKEREWEAVRLRLLARRAYFGLPRAQVEEEVVCP
notes: d subunit (subunit C) of the V/A-ATPase of Thermus thermophilus, strain HB8
B4: D subunit of the Thermus thermophilus V/A-ATPase (natural protein)
chain: MSQVSPTRMNLLQRRGQLRLAQKGVDLLKKKRDALVAEFFGLVREAMEARKALDQAAKEAYAALLLAQAFDGPEVVAGAALGVPPLEGVEAEVENVWGSKVPRLKATFPDGALLSPVGTPAYTLEASRAFRRYAEALIRVANTETRLKKIGEEIKKTTRRVNALEQVVIPGIRAQIRFIQQVLEQREREDTFRLKRIKGKIEAREAEEEGGRPNPQVEIGAGL
notes: D subunit (central shaft) of the V/A-ATPase of Thermus thermophilus, strain HB8; holds the short helix called screw driver helix (SDH); also called subunit D; axis subunit of the V1 domain; source: T. thermophilus membranes, V/A-ATPase purified (Ni-NTA by the His3 tag on the c-subunit, Resource Q), in nanodiscs

The target in series [1] is B4. Briefly: cryo-EM structure; holo V/A-ATPase (His3 tag on the c subunit) in nanodiscs (MSP1E3D1, POPC), 20 mM Tris-HCl pH 8.0, 150 mM NaCl, 2 mM MgCl2; Titan Krios, Falcon II; rotational state 1, 3.6 Å overall, 3.5 Å focused map of A3B3DFE2G2dasol. The following applies: both partners purified.
Series [2] concerns the molecule itself. Briefly: cryo-EM structure; isolated Vo (His3 tag on the c subunit) in nanodiscs (MSP1E3D1, DMPC by the methods), 20 mM Tris-HCl pH 8.0, 150 mM NaCl; CRYOARM200, K2 Summit; 3.9 Å.
The target in series [3] is T1, a subunit of the Thermus thermophilus V/A-ATPase (Thermus thermophilus, UniProt Q5SIT6 1-652).
T1 construct: a subunit (subunit I) of the V/A-ATPase of Thermus thermophilus, strain HB8; soluble arm domain asol and C-terminal hydrophobic domain aCT (membrane domain printed as A327-E637); also called asol (soluble arm domain); aCT (membrane-embedded C-terminal region)
T1 sequence: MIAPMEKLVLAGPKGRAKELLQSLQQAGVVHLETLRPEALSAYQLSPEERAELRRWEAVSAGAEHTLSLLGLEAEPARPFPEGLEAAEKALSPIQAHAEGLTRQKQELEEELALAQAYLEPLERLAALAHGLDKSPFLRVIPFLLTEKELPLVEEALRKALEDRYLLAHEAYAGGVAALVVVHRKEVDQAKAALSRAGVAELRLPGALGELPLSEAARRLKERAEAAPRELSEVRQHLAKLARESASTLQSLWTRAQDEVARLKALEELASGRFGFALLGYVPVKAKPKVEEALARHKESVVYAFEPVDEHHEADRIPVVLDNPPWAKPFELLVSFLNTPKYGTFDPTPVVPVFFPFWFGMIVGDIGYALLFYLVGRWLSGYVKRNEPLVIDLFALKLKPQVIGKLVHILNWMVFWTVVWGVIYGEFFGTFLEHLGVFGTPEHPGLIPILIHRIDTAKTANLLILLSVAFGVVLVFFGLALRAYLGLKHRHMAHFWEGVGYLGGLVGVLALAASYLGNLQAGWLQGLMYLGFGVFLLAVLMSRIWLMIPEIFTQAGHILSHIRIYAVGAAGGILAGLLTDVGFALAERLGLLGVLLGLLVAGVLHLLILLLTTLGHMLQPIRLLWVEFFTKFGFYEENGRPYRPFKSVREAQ
Described as above. The following applies: both partners purified.

Series [4] deals with B3. Briefly: cryo-EM structure; holo V/A-ATPase (His3 tag on the c subunit) in nanodiscs (MSP1E3D1, POPC), 20 mM Tris-HCl pH 8.0, 150 mM NaCl, 2 mM MgCl2; Titan Krios, Falcon II; rotational state 1, 3.6 Å overall, 3.5 Å focused map of A3B3DFE2G2dasol. The settings on record: both partners purified.

B1: F subunit of the Thermus thermophilus V/A-ATPase (natural protein)
chain: MAVIADPETAQGFRLAGLEGYGASSAEEAQSLLETLVERGGYALVAVDEALLPDPERAVERLMRGRDLPVLLPIAGLKEAFQGHDVEGYMRELVRKTIGFDIKL
notes: F subunit (central shaft) of the V/A-ATPase of Thermus thermophilus, strain HB8; also called subunit F; source: T. thermophilus membranes, V/A-ATPase purified (Ni-NTA by the His3 tag on the c-subunit, Resource Q), in nanodiscs
B1: the binding result in series [1] is listed as “binds”.

B2: c subunit of the Thermus thermophilus V/A-ATPase (c12 rotor ring) (natural protein)
chain: AEEAAASGGLDRGLIAVGMGLAVGLAALGTGVAQARIGAAGVGAIAEDRSNFGTALIFLLLPETLVIFGLLIAFILNGRL
notes: c subunit (subunit K/L, proteolipid) of the V/A-ATPase of Thermus thermophilus, strain HB8; chains Y and Z of the model are named in the text; Stands as a ring of twelve copies in Vo; also called c12 ring; c-ring; not shown: His3, C-terminal, kept; copies: 12
Turning to B2, the “stoichiometry N” value in series [2] is 12.

Take B3: the binding result in series [3] is listed as “binds”.

Regarding B4, the binding result in series [4] was “binds”.
